{"source": "paper PMC12839305", "about": "(2025)", "molecular_target": "T1, RVFV glycoprotein Gn head domain (154–469 aa) (Rift Valley fever virus, UniProt P21401 154-469)", "T1 chain": "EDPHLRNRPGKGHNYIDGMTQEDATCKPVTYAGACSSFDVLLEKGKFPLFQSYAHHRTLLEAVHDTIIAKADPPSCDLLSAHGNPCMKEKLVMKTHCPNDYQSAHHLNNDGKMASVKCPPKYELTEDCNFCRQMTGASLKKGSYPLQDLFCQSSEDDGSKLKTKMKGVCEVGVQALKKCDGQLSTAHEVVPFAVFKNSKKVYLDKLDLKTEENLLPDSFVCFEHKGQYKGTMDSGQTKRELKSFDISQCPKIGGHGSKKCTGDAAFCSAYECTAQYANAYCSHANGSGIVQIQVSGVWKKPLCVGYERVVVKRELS", "experiment": "BLI"}
{"binder": "LRP1 single complement-type repeat CR25 fused to human Fc (Fc fusion) not shown", "values": [{"measurement": "Kd", "value": 67, "unit": "nM"}]}
